Results from doi:10.1101/2020.10.05.326918 (bioRxiv, 2020).

Tests used:
Assay in all cases: cryo-EM structure
MED23 = target: T1, MED23 (Mus musculus (endogenous in CH12 cells), UniProt Q80YQ2 1-1367)
T1 sequence (looked up): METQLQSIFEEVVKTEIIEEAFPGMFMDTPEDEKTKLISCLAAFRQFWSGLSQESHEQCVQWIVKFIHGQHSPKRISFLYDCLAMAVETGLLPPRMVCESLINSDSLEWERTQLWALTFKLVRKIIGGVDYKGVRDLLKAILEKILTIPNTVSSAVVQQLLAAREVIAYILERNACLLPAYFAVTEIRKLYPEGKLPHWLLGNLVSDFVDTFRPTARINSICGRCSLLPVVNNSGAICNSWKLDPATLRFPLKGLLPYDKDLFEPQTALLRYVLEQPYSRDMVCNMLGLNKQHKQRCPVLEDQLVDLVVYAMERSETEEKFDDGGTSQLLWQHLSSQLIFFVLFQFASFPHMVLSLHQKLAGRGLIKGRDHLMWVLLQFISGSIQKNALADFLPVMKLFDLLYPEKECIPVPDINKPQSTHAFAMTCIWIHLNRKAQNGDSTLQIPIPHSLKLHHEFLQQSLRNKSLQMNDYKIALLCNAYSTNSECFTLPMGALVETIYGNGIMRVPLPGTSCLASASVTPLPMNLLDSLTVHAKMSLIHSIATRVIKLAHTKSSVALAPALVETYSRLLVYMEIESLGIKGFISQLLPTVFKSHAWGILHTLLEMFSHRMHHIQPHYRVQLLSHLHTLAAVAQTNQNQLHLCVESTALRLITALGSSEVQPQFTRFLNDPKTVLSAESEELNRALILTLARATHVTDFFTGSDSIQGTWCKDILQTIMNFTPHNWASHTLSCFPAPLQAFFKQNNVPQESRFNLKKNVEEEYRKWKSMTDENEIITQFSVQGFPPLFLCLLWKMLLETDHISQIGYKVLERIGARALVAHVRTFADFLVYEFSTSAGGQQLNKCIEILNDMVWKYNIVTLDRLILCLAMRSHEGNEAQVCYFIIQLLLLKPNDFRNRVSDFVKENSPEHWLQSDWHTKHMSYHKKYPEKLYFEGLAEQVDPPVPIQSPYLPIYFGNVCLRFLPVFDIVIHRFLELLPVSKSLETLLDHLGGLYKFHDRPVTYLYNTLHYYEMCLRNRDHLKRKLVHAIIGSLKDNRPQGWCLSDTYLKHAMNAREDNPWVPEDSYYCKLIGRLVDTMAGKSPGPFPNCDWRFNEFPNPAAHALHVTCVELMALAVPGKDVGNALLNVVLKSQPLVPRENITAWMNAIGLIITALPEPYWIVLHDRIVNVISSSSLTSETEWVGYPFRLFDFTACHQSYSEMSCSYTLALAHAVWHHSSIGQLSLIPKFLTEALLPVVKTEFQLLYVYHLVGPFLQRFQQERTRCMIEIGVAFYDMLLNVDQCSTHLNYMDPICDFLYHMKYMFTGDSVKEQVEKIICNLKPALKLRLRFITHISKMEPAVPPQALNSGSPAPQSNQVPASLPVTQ

MED24 = target: T2, MED24 (Mus musculus (endogenous in CH12 cells), UniProt Q99K74 1-987)
T2 sequence (looked up): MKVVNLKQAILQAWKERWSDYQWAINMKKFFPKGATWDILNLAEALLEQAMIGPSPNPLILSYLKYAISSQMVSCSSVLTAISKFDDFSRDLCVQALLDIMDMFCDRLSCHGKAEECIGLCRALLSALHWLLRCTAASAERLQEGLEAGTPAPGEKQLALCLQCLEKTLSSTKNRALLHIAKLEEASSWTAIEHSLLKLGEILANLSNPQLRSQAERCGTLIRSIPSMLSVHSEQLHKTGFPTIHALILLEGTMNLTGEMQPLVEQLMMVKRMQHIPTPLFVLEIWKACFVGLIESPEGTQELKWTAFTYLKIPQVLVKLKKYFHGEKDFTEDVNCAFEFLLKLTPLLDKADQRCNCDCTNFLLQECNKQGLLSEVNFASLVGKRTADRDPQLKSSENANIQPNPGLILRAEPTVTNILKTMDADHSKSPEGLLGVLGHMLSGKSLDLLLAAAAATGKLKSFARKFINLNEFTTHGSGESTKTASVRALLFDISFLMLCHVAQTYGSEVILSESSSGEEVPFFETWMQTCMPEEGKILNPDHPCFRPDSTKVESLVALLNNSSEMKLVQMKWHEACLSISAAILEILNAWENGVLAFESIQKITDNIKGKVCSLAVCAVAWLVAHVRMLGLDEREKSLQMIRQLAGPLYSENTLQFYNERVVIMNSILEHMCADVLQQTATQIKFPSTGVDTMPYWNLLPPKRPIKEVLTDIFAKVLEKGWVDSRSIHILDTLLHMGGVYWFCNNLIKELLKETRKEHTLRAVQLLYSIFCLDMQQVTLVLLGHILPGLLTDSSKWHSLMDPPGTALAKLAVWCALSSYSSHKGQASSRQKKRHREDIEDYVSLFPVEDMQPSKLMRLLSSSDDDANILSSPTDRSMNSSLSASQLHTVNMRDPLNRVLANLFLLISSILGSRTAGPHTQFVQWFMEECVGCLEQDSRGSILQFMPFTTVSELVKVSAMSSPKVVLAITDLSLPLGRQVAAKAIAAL

MED14 = MED14 (Mus musculus (endogenous in CH12 cells), UniProt A2ABV5 1-1459)
MED16 = target: T3, MED16 (Mus musculus (endogenous in CH12 cells), UniProt Q6PGF3 1-828)
T3 sequence (looked up): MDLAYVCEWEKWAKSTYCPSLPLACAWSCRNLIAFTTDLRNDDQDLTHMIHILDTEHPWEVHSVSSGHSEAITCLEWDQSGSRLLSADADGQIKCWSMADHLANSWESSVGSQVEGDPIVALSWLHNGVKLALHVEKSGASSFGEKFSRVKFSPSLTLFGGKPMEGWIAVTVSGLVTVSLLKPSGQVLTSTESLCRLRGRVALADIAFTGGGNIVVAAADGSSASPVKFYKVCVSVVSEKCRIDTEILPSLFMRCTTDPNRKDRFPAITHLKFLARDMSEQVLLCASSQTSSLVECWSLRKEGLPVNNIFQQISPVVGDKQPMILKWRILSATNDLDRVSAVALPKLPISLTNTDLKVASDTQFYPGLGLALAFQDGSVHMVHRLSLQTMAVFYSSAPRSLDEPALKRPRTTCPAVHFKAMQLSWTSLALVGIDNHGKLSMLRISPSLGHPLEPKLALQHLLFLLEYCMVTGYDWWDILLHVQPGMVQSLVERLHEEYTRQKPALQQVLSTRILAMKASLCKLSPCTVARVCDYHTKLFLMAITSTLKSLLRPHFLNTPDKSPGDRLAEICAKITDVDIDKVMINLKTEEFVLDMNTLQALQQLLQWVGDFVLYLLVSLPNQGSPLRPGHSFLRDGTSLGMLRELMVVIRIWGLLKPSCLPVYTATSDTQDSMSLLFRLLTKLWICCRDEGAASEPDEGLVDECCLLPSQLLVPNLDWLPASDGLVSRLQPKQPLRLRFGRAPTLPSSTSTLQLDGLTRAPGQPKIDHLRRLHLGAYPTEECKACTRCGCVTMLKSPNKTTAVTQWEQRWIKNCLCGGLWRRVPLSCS

Measured: binding result

MED14, sequence (A2ABV5 whole entry): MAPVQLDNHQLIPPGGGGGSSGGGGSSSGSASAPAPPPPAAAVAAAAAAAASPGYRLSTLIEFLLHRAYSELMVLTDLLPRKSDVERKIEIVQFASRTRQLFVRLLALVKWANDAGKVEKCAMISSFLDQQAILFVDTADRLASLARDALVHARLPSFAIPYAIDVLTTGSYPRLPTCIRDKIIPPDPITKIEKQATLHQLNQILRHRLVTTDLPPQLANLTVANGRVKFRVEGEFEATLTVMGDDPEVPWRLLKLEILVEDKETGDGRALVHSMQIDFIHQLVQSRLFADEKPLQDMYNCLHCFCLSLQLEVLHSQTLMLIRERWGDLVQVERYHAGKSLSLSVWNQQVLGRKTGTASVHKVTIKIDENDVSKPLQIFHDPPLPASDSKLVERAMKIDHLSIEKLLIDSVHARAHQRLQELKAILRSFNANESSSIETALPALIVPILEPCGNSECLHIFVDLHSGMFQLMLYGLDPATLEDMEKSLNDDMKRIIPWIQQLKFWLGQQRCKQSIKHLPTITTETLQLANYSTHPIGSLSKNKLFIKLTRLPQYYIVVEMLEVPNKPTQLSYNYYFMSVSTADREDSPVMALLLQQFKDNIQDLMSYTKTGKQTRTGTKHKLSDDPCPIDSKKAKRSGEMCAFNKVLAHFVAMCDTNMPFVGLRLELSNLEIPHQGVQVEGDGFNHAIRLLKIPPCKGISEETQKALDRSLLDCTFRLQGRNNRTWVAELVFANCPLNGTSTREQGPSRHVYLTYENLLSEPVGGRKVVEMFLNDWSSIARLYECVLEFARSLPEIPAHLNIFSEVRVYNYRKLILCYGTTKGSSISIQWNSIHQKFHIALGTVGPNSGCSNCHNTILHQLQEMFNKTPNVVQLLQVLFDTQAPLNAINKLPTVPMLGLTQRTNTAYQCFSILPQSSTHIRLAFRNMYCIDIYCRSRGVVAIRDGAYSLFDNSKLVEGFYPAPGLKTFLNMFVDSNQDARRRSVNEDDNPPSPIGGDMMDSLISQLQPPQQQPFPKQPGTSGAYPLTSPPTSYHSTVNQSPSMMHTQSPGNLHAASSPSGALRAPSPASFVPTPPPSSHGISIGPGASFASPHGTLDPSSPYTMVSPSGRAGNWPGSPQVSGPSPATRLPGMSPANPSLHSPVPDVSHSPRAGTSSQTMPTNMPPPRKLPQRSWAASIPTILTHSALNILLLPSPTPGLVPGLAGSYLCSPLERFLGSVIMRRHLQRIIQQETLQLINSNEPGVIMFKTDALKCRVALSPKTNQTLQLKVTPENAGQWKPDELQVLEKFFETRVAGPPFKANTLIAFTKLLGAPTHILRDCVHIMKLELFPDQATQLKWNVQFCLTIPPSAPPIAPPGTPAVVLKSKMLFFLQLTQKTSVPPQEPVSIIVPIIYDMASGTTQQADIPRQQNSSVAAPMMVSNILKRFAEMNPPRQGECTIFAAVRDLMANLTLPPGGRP

B1: MED15 (natural protein, Mus musculus (endogenous in CH12 cells), UniProt Q924H2 1-789, looked up)
chain: MDVSGQETDWRSAAFRQKLVSQIEDAMRKAGVAHSKSSKDMESHVFLKAKTRDEYLSLVARLIIHFRDIHNKKSQASVSDPMNALQSLTGGPTPGAAGIGMPPRGPGQSLGGMGGLGAMGQPLPLSGQPPPGTSGMAPHGMAVVSTATPQTQLQLQQVALQQQQQQQQQQQFQQQQAALQQQQQQQQQQQQQQQFQAQQNAMQQQFQAVVQQQQLQQQQQQQHLIKLHHQSQQQQIQQQQLQRMAQLQLQQQQQQQQQQALQAQPPMQQPSMQQPQPPPSQALPQQLSQLHHPQHHQPPPQAQQSPIAQNQPPQIPPQSQSQPLVSQAQALPGPMLYAAQQQLKFVRAPMVVQQPQVQPQVQQVQPQVQPQAAVQAAQSAQMVAPGVQMIAEALAQGGMHVRARFPPTSTMSAGPSSSISLGGQPTTQVSQSSLTMLSSPSPGQQVQTPQSMPPPPQPSPQPGSQPNSNVSSGPAPSPSSFLPSPSPQPSQSPVTARTPQNFSVPSPGPLNTPVNPSSVMSPAGSSQAEEQQYLDKLKQLSKYIEPLRRMINKIDKNEDRKKDLSKMKSLLDILTDPSKRCPLKTLQKCEIALEKLKNDMAVPTPPPPPVLPTKQQDLCQPLLDAVLANIRSPVFNHSLYRTFVPAMMAIHGPPIVSPVVCSRKRRFEEDERQSIPNVLQGEVARLDPKFLVNLDPSHCSNNGTVHLICKLDDKDLPSVPPLELSVPADYPAQSPMWIDRQWQYDANPFLQSVHRCMTSRLLQLPDKHSVTALLNTWAQSIHQACLSAA
binds: all assays above

B2: MED25 (natural protein, Mus musculus (endogenous in CH12 cells), UniProt Q8VCB2 1-745, looked up)
chain: MVPGSEGPARAGGLVADVVFVIEGTANLGPYFEELRKHYLLPAIEYFNGGPPAETDFGGDYGGTQYSLVVFNTVDCAPESYVQCHAPTSSAYEFVTWLDGIKFMGGGGESCSLIAEGLSTALQLFDDFKKMREQIGQTHRVCLLICNSPPYLLPAVESTTYSGCTTESLVQKIGERGIHFSIVSPRKLPALRLLFEKAAPPALLEPLQQPADVSQDPRHMVLVRGLVLPVGGSSTSGSLQTKQAVPLPPAPASAATLSAAPPQALPPVPPQYQVPGNLSAAQVAAQNAVEAAKSQKAGLGPRFSPINPLQQAAPGVGPPFSQAPAPPLAPVPPGAPKPPPASQPSLVSTVAPGPVLAAPAQPGAPSLAGTVTPGGVNGPSAAQLGGPALGGQQSVSNKLLAWSGVLEWQEKPKPASVDANTKLTRSLPCQVYVNHGENLKTEQWPQKLIMQLIPQQLLTTLGPLFRNSRMVQFHFTNKDLESLKGLYRIMGNGFAGCVHFPHTAPCEVRVLMLLYSSKKKIFMGLIPYDQSGFVNGIRQVITNHKQVQQQKLEQQRGMGAQQAPPVLGPILEEQARPPQNLLQLRAPQPQPQGAVGASAATGQPQPQGATQAPTGAPQGPPGAAPGPPPSGPILRPQNPGANPQLRSLLLNPAPPQTGVPPPQASLHHLQPPGAPTLLPPHQSMGQPQLGPQLLHPPPAQSWPTQLPQRAPLPGQMLLSGGPRGPVPQPGLQPSVMEDDILMDLI
binds: MED23 | MED24 | MED16
